Laboratory results as given in paper PMC5510004, “Recruitment and positioning determine the specific role of the XPF‐ERCC1 endonuclease in interstrand crosslink repair”.
Positions count from the first letter of the chain named.

Columns and labels:
[1] = target: T1, XPF S767F;ERCC1 wild type (hsERCC1) (Xenopus laevis;Homo sapiens?, UniProt A0A8J0PXV9;P07992 1-897;1-297, S767F|); assay: fluorescence anisotropy; 2 mM Ca2+; comparable to wild type; 25 mM Hepes pH 8.0, 15% glycerol, 0.1 mg/ml BSA, 2 mM CaCl2, 10 nM DNA, 1 h at room temperature; conditions: protein: recombinant;recombinant; tags: FLAG;His; copies: 1;1; label: 5'-FAM on F1; three strands 1:1:1
T1 sequence 1: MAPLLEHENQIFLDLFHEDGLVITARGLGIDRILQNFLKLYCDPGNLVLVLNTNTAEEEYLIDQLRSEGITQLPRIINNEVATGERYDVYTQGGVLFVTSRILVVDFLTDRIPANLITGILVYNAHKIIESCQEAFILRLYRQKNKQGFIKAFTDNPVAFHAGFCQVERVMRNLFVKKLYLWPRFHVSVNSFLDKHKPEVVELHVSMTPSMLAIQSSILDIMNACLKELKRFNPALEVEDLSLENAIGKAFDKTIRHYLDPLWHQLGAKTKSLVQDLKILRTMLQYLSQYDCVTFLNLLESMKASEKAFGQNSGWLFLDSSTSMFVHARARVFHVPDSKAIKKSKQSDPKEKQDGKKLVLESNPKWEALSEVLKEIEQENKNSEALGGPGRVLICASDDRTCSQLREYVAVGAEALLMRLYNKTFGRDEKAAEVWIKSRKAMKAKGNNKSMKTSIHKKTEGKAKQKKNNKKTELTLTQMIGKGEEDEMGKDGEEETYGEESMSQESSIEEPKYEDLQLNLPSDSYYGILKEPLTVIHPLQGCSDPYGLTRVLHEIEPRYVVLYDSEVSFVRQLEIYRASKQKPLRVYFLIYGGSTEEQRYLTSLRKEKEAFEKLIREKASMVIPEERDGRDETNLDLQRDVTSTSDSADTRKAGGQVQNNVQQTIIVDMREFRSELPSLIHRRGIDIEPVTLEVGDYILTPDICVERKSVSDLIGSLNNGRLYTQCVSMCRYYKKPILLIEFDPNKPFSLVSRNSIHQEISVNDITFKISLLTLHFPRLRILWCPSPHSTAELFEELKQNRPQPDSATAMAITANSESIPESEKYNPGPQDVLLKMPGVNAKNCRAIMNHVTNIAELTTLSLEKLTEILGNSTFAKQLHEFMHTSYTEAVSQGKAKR
T1 sequence 2: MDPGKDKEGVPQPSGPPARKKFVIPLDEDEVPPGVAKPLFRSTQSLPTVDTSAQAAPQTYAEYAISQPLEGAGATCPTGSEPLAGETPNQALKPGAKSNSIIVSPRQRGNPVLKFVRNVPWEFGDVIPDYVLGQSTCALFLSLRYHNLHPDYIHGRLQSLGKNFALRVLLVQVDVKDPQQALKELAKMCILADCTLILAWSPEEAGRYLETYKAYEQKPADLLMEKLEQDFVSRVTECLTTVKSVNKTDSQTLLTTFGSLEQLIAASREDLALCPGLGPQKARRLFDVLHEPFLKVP

[2] = target: T2, XPF R670S;ERCC1 wild type (hsERCC1) (Xenopus laevis;Homo sapiens?, UniProt A0A8J0PXV9;P07992 1-897;1-297, R670S|); assay: as above; conditions: protein: recombinant;recombinant; tags: FLAG;His; copies: 1;1; label: 5'-FAM on F1; three strands 1:1:1
T2 sequence 1: T1 sequence 1 with R670S, F767S
T2 sequence 2: T1 sequence 2

B1: 3' flap DNA substrate (F1+F2+F3) (dsDNA)
DNA 1: CGCGATGCGGATCCAA
DNA 2: CCTAGACTTAAGAGGCCAGACTTGGATCCGCATCGC
DNA 3: GGCCTCTTAAGTCTAGG
B1: binds [1]; binds [2].
